Assay results from patent publication US20250154265A1.

Legend:
Test in all cases: cell-based or functional assay
[1] = target: EGFR L858R/T790M on H1975 cells (human) (UniProt P00533)
[2] = target: WT EGFR on HEKn cells (human) (UniProt P00533)
[3] = target: human cMET on cells (Hs746T, H596, EBC-1) (human) (UniProt P08581)
[4] = target: EGFR on H2073 cells (human) (UniProt P00533)

Chain of human cMET on cells (Hs746T, H596, EBC-1) (human) (P08581 25-1390 limits assumed): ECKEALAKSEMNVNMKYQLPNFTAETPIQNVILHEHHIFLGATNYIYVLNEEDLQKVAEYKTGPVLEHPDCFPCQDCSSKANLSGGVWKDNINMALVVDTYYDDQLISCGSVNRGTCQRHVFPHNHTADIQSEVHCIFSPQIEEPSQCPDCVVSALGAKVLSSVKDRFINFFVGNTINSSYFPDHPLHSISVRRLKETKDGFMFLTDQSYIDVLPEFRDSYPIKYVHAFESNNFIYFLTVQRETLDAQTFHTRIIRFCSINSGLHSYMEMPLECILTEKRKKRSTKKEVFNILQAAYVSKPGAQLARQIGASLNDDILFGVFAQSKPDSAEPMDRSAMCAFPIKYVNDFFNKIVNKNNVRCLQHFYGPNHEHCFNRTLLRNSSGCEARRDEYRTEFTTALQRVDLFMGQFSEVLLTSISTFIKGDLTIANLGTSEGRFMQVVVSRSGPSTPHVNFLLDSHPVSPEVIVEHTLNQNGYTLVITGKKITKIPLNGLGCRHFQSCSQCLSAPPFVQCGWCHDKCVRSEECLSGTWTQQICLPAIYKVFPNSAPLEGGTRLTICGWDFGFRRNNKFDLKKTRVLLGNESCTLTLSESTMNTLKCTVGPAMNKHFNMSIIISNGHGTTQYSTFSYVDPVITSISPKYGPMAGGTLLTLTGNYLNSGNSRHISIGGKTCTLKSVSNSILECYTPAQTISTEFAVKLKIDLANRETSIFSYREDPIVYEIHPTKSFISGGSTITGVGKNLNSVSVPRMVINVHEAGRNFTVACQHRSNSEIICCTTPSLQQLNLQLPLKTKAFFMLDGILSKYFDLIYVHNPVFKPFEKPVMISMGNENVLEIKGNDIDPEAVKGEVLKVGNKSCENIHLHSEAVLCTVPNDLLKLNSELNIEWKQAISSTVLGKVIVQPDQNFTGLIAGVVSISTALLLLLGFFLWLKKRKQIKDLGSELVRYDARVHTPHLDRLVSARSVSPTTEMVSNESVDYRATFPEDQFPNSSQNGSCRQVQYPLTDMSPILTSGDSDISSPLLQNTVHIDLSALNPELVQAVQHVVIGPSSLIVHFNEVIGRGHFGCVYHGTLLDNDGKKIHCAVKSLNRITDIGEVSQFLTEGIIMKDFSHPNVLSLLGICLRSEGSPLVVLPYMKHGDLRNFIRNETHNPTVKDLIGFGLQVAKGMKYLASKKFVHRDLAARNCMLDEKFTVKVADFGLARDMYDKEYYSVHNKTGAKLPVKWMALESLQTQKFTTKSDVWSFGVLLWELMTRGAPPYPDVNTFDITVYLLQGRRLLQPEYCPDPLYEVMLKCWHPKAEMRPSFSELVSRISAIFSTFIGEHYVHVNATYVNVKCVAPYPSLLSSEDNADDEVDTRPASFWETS

IC50, anti-proliferation on H1975 [1]	Imax (%), anti-proliferation on H1975 [1]	IC50, anti-proliferation on HEKn cells [2]	Imax(%), anti-proliferation on HEKn cells [2]	Imax (%), anti-proliferation on EBC-1 [3]	Imax (%), anti-proliferation on Hs746t [3]	IC50, anti-proliferation on H2073 [4]	Imax (%), anti-proliferation on H2073 [4]	Substance
0.23 nM	58.4%	5.7 nM	33.5%	0%	0%	3.46 nM	83%	JNJ-372 (bispecific antibody)
–	–	0.24 nM	46.2%	–	–	–	–	LY3164530 (bispecific antibody)
